According to US20120165244A1, “METHODS FOR BINDING LEWIS Y ANTIGEN” (priority 2008, published 2012):

Legend:
[1] = Half-life of rTMD1 in the circulation (sandwich ELISA); assay type: in vivo, Male FVB mice; conditions: mice
Method: Male FVB mice (8-10 weeks old) were used to model sepsis in vivo. The Institutional Animal Care and Use Committee of the National Cheng Kung University approved procedures. In the chronic endotoxemia model, various concentrations of rTMD1 or rTMD proteins in equi-molar amounts were administrated by tail intravenous (i.v.) injection and LPS (20 mg/kg) or K. pneumoniae (5×10^2 CFU/mouse, BCRC) was administrated by intraperitoneal (i.p.) injection. After 6 or 12 hours, mice were sacrificed by pentobarbital anesthesia (50 mg/kg; i.p.). […] The half-life of rTMD1 in the circulation was determined by i.v. injection of rTMD1 (10 mg/kg, equals 436.64 nmole/kg) and serum samples were collected at various time intervals. The levels of rTMD1 in the collected sera were determined by a sandwich ELISA which employed anti-c-Myc monoclonal antibody and TM-H300 as capture and detection antibodies (both from Santa Cruz Biotechnology), respectively. […] Mortality was monitored every 6-12 hours until all mice in either experimental group died. […] Serum samples were collected at various time intervals and the amount of LPS was determined by Limulus amebocyte lysate test (Associates of Cape Cod, E. Falmouth, Mass.). […] Outgrowth of K. pneumoniae was quantified by plating serial dilutions of blood samples on blood agar plates and enumerating colonies after overnight incubation at 37° C.

RAW 264.7 cells [2] = assay: LPS-induced TNF-α production in RAW 264.7 cells (ELISA); assay type: cell-based, murine
Method: (§1) Human leukemia monocytic THP-1 cells and murine macrophage cell line RAW 264.7 were obtained from the American Type Culture Collection. THP-1 cells were grown in suspension in RPMI-1640 supplemented with 10 mM HEPES, 1 mM sodium pyruvate, 0.1% β-mercaptoethanol, 100 U/ml penicillin, 100 µg/ml streptomycin, and 10% fetal bovine serum (FBS). RAW 264.7 cells were grown as an adhered layer in Dulbecco's modified Eagle's medium with 4 mM L-glutamine adjusted to contain 1.5 g/l sodium bicarbonate and 4.5 g/l glucose, 100 U/ml penicillin, […] streptomycin, and 10% FBS under a humidified 5% CO2 atmosphere at 37° C. For differentiation, THP-1 cells were plated in medium containing 10 nM PMA and allowed to adhere for 18 h.
(§2) TNF-α in conditioned medium or mouse serum was measured by an enzyme-linked immunosorbent assay (ELISA) (R&D Systems, Minneapolis, Minn.). Accumulation of nitrite in the medium or mouse serum was determined by a colorimetric assay using Griess reagent (Sigma-Aldrich). Blood urea nitrogen (BUN) and creatinine were measured with a Roche D&P modular (Roche Diagnostic Systems, Branchburg, N.J.). Assays were performed according to the manufacturer's protocol.

RAW 264.7 cells [3] = assay: Western blotting of LPS-induced signaling pathways in RAW 264.7 cells; assay type: cell-based, murine
Method: rTMD1 (0-50 μg/mL, equals 0-2.18 nmole/mL) pre-incubated without or with Escherichia coli (E. coli) LPS (LPS O111:B4, Sigma-Aldrich) in the absence or presence of Lewis Y (Le^y; Dextra Laboratories, Reading, UK) for 30 minutes was used to stimulate THP-1 or RAW 264.7 cells. Incubation period included 15 minutes for pIκB and IκB (B-9 and C-21, Santa Cruz Biotechnology, Santa Cruz, Calif., unless otherwise noted), 20 minutes for p38 (C-20) and pp38 (D-8), 30 minutes for ERK1/2 (K-23), pERK1/2 (E-4), lamin B2 (E-3, Zymed Laboratories, San Francisco, Calif.), NF-κB p50 (C-19) and NF-κB p65 nuclear translocation (C-20), and 24 hours for iNOS expression using a specific antibody (N-20).

[4] = Chronic endotoxemia model (LPS 20 mg/kg i.p.) in mice; assay type: in vivo, Male FVB mice
Method: as §2
Male FVB mice (8-10 weeks old) were used to model sepsis in vivo. The Institutional Animal Care and Use Committee of the National Cheng Kung University approved procedures. In the chronic endotoxemia model, various concentrations of rTMD1 or rTMD proteins in equi-molar amounts were administrated by tail intravenous (i.v.) injection and LPS (20 mg/kg) or K. pneumoniae (5×10^2 CFU/mouse, BCRC) was administrated by intraperitoneal (i.p.) injection. After 6 or 12 hours, mice were sacrificed by pentobarbital anesthesia (50 mg/kg; i.p.). Sera were collected and assayed for TNF-α, NO, BUN, and creatinine, and lung and kidney tissues were removed, fixed with formalin, and embedded in paraffin for histochemical examination. In the lethal sepsis model, rTMD1 (2 mg/kg, equals 87.3 nmole/kg) was i.v.-administrated at 0, 6, 12, and 24 hours after i.p. administration of LPS (40 mg/kg). The half-life of rTMD1 in the circulation was determined by i.v. injection of rTMD1 (10 mg/kg, equals 436.64 nmole/kg) and serum samples were collected at various time intervals. The levels of rTMD1 in the collected sera were determined by a sandwich ELISA which employed anti-c-Myc monoclonal antibody and TM-H300 as capture and detection antibodies (both from Santa Cruz Biotechnology), respectively. For the lethal bacteremia model, rTMD1 (10 mg/kg) was administrated prior to i.p. injection of K. pneumoniae (5×10^3 CFU/mouse). Mortality was monitored every 6-12 hours until all mice in either experimental group died. Experimental procedure of determining LPS half-life is as following. LPS (20 mg/kg) was i.p.-administrated to male FVB mice without or with rTMD1 (10 mg/kg; i.v.). Serum samples were collected at various time intervals and the amount of LPS was determined by Limulus amebocyte lysate test (Associates of Cape Cod, E. Falmouth, Mass.). A further experiment was performed to determine whether rTMD1 affects bacterial clearance. K. pneumoniae (5×10^2 CFU/mouse) was i.p.-administrated to male FVB mice without or with rTMD1 (10 mg/kg; i.v.), and blood samples were collected at various time intervals. Outgrowth of K. pneumoniae was quantified by plating serial dilutions of blood samples on blood agar plates and enumerating colonies after overnight incubation at 37° C.

RAW 264.7 cells [5] = assay: LPS-induced NO production in RAW 264.7 cells (Griess reagent); assay type: cell-based, murine; conditions: pre-incubated with LPS, 6 hours incubation (FIG. 1B)
Method: as §1, §2

[6] = LPS binding assay (coated wells); parameters: species or system E. coli; conditions: FIG. 4B
Method: K. pneumoniae (3×10^5 CFU/well), E. coli O111:B4 smooth-type LPS (5 μg/well), or bovine serum albumin (BSA, 5 μg/well) in 100 μL of bicarbonate buffer (pH 9.6) were coated onto wells of high-binding microtiter plate (Corning Costar, Cambridge, Mass.). Nonspecific binding was blocked with binding buffer (20 mM Tris-HCl, pH 7.4, 0.15 M NaCl, 5 mM CaCl2) containing 50 mg/mL BSA. Various concentrations of rTMD proteins without or with CD14 (10 μg/mL; R&D Systems) in binding buffer containing 1 mg/mL BSA were added to wells and incubated for 2 hours. In some experiments, 0.2 M mannose, 5 mM EDTA, or Le^y were included in the binding buffer to compete with LPS and rTMD1 binding. Antibody against the c-Myc epitope of the rTMD proteins was added to wells and incubated for 2 hours, and peroxidase-labeled secondary antibody followed. Binding of rTMD proteins was detected by measuring absorbance at 450 nm.

[7] = 12 hours after LPS, compared with LPS-treated mice
[8] = rTMD1 1-5 mg/kg i.v., 6 hours after LPS 20 mg/kg i.p.

B1: rTMD1: recombinant human thrombomodulin N-terminal lectin-like domain (residues Ala1-Ala155) with 6×His tag and c-Myc epitope, Pichia pastoris expressed (protein)
chain: EFAPAEPQPGGSQCVEHDCFALYPGPATFLNASQICDGLRGHLMTVRSSVAADVISLLLNGDGGVGRRRLWIGLQLPPGCGDPKRLGPLRGFQWVTGDNNTSYSRWARLDLNGAPLCGPLCVAVSAAEATVPSEPIWEEQQCEVKADGFLCEFHFPAYLEDDDDKIEQKLISEEDLNSAVDHHHHHH
modifications: left off: small tags and cut ends
time detectable after each i.v. injection ([1]; i.v.): ≤ 12 h | half-life in circulation ([1]; i.v. 10 mg/kg): 3 to 4 h | TNF-α production in RAW 264.7 cells stimulated with LPS (RAW 264.7 cells [2]; pre-incubated with LPS, 6 hours incubation (FIG. 1A)): dose-dependently inhibited | LPS-induced TNF-α production (RAW 264.7 cells [2]; various concentrations of LPS and rTMD1 (FIG. 1C)): dose-dependently inhibited | LPS-induced nuclear translocation of NF-κB (RAW 264.7 cells [3]; FIG. 1E): inhibited in a dose-dependent fashion | LPS-induced phosphorylation of ERK1/2 and p38 (RAW 264.7 cells [3]; FIG. 1F): inhibited | LPS-induced phosphorylation and degradation of IκBα (RAW 264.7 cells [3]; LPS 100 ng/mL, rTMD1 50 μg/mL (2.18 nmole/mL)): totally reversed | iNOS induction by LPS (RAW 264.7 cells [3]; RAW 264.7 cells, FIG. 1G): inhibited | pulmonary accumulation of PMNs / LPS-induced inflammatory responses ([4]; 6 hours after LPS administration (FIG. 2C-D)): significantly inhibited | BUN level [4, 7]: markedly reduced | serum creatinine level [4, 7]: markedly reduced | extent of glomerulonephritis ([4]; kidney, 12 hours after LPS 20 mg/kg (FIG. 2E)): significantly reduced | NO levels in mice [4, 8]: significantly decreasing levels | TNF-α levels in mice [4, 8]: significantly decreasing levels | NO production in RAW 264.7 cells (RAW 264.7 cells [5]): effectively inhibit | binding to LPS [6]: specifically bound | Kd ([6]; estimated from the 50% saturation, read-out: apparent Kd of the binding of LPS with rTMD1): ~1600 nM
